Test results published in publication PMC11321297 (Cell Insight, 2024).

Molecular target: the molecule itself
Assay: cross-linking

B1: His-GLUD1^K84R (enzyme)
chain: not shown
Q: For B1, which “stoichiometry N” value is on record?
A: The value was 6.
